{"source": "patent US20150268247A1", "about": "“Assay for Screening of Anti-Viral Compounds That Inhibit Specific Interaction Interfaces Between Cullin5 and an ElonginB/ElonginC/ CBF-beta/HIV-1 Vif Complex” (UNIVERSITY OF ROCHESTER, priority 2012, published 2015)", "key": {"[1]": {"target": "mEGFP tagged quaternary complexes"}, "[2]": {"target": "mEGFP tagged quaternary complexes", "remark": "listed apart in the source"}}, "data": [{"substance": "Cul5(N)-sREACh (human Cul5 residues 2-384 with V341R, L345D, C-terminally tagged with sREACh with F46L, Q69M, F223R)", "values": [{"measurement": "percent decrease in fluorescence (FRET quench)", "setting": "[1]", "value": 8, "unit": "%"}]}, {"substance": "sREACh-Cul5(N) (sREACh with F46L, Q69M, F223R, flexible linker, human Cul5 residues 2-384 with V341R, L345D)", "values": [{"measurement": "percent quenching", "setting": "[2]", "value": 20, "unit": "%"}]}]}
